For orientation: Kd means the concentration at which binding is half-saturated. Low values mean higher affinity, high ones lower affinity.

Experiment [1] concerns the target T1, human FcγRIIIa-158F (human, UniProt P08637 17-208, limits assumed).
T1 construct: also called FcγRIIIa aa158F allele
As to the kind of experiment: Biacore (SPR).

A further experiment addresses T2, human FcγRIIIa-158V (human, UniProt P08637 17-208).
T2 construct: also called FcγRIIIa aa518V allele (sic); FcγRIIIa aa158V
As to the kind of experiment: Biacore (SPR). A general note: Surface plasmon resonance follows binding to a sensor surface in real time, without labels.

Experiment [2] deals with T1, human FcγRIIIa-158F. As to the kind of experiment: Biacore (SPR); reference rituximab on the same allele.

T1 sequence (P08637 17-208 limits assumed): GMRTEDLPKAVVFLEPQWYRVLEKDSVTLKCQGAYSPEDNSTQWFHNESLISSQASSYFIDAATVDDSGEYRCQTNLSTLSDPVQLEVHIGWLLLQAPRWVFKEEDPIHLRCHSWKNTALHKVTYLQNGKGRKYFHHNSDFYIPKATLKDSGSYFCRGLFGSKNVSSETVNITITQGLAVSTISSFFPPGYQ
T2 sequence (P08637 17-208 F176V): as the sequence (P08637 17-208 limits assumed) above, with F160V counted along it

B1: monoclonal antibody CHIR-12.12 (antibody)
heavy: not shown
light: DIVMTQSPLSLTVTPGEPASISCRSSQSLLYSNGYNYLDWYLQKPGQSPQVLISLGSNRASGVPDRFSGSGSGTDFTLKISRVEAEDVGVYYCMQARQTPFTFGPGTKVDIRRTVAAPSVFIFPPSDEQLKSGTASVVCLLNNFYPREAKVQWKVDNALQSGNSQESVTEQDSKDSTYSLSSTLTLSKADYEKHKVYACEVTHQGLSSPVTKSFNRGEC
notes: Fully human anti-CD40 IgG1 kappa; also called CH12.12
For B1, the Kd turned out to be 2800 nM with human FcγRIIIa-158F [1] and 492 nM in the experiment with human FcγRIIIa-158V. Besides, the “fold higher affinity compared with rituximab” value in the experiment with human FcγRIIIa-158F [2] came out at 4.6 fold.
